Results reported in patent publication CN111138527A (INST MILITARY MEDICINE ACADEMY MILITARY SCIENCES PLA, dated 2020).

Legend:
EBOV GP = biological target: T1, EBOV GP (Ebola virus (EBOV), UniProt Q05320 33-650); assay: ELISA, EBOV GP coated at 1 μg/mL
T1 sequence: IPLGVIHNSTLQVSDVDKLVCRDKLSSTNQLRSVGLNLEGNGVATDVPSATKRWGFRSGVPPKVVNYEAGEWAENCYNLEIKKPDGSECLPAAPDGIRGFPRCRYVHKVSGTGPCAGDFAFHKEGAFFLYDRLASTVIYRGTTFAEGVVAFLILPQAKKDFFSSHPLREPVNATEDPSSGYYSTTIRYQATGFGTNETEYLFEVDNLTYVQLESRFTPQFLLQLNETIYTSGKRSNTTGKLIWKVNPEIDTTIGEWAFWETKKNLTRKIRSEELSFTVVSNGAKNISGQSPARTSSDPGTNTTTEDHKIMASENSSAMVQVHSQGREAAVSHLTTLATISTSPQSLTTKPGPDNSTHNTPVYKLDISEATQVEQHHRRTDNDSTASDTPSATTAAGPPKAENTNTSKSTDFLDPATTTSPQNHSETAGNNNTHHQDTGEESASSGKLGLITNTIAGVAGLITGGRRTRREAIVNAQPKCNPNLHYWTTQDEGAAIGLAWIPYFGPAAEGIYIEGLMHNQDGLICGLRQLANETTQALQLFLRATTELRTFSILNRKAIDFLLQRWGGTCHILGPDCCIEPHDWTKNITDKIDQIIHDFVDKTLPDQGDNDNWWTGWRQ

sGP = sGP (Ebola virus (EBOV), UniProt P60170 33-295); assay: ELISA on coated truncated GP
GP 95-295 = GP 95-295 (Ebola virus (EBOV), UniProt Q05320 95-295); assay: ELISA on coated truncated GP
GP1 = GP1 (Ebola virus (EBOV), UniProt Q05320 33-501); assay: ELISA on coated truncated GP

B1: 抗埃博拉病毒糖蛋白GP1亚基的单克隆抗体4F1 (antibody, V domains shown)
VH: EVQLVESGGGLVQPGGSLRLSCAASGFSFRIYDMHWVRQVTGRGLEWVSAIGSASDTYYRDSVKGRFTISRENAKNSLYLQMNSLRAGDTAVYYCARASFGELMFDLWGQGTLVTVSS
VL: DIQMTQSPSSLSLSPGERATLSCRASQSVGSSLAWYQQKPGQAPRLLIYAASSRATGFPDRFSGSGSGTDFTLTISRLEPEDFAVYYCQQYGGSPLTFGGGTKVEIKT
EC50 (EBOV GP): 5.7 ng/mL
EC50 (sGP): 3.9 ng/mL
EC50 (GP 95-295): 33 ng/mL
fold decrease of binding activity relative to GPdTM (GP 95-295): ~5 fold
EC50 (GP1): 7.8 ng/mL
